Article PMC6368300

Target: Pyruvate Kinase M2 (human) (UniProt P14618)
Experiment: SPR; Autolab SPR; PKM2 immobilised by NHS/EDC coupling; Histone H3 100 nM-1000 nM as analyte; 10 mM HEPES pH 7.4, 150 mM NaCl, 3 mM EDTA, 0.05% NP-40; 25°C; 1:1 Langmuir model, KD from the equilibrium equation; triplicate

Sequence of UniProt P14618 (P14618 whole entry): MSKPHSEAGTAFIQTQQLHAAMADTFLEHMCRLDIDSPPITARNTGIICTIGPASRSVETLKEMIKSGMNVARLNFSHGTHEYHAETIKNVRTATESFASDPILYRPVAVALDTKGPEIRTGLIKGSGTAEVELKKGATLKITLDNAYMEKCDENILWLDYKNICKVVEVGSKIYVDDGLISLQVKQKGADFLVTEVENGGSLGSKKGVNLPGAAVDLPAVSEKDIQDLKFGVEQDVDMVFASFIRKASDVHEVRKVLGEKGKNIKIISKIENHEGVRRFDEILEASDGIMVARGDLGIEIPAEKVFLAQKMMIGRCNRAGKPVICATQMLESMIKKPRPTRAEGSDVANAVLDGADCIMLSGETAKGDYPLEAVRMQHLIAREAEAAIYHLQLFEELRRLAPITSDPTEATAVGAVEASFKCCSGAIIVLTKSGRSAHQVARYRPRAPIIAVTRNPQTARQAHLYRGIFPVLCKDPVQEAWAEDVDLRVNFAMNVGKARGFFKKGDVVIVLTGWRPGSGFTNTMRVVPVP

Kd: 6.39 µM
Substance: Histone H3 (from UniProt P84233 1-136) (natural protein; other documents disagree on this pair)
